Laboratory results as given in patent publication US20100113582A1.

Experiments:
[1] = biological target: HIV-PRD29A^YFP (HIV-1 (HIV-1NL4-3)) (UniProt P12497); test: FRET-HIV-1 assay, co-transfected Cos-7 cells
[2] = biological target: HIV-PRD29N^YFP (HIV-1 (HIV-1NL4-3)) (UniProt P12497); test: FRET-HIV-1 assay, co-transfected Cos-7 cells
[3] = biological target: HIV-PRR87K^YFP (HIV-1 (HIV-1NL4-3)) (UniProt P12497); test: FRET-HIV-1 assay, co-transfected Cos-7 cells
[4] = biological target: HIV-PRT26A^YFP (HIV-1 (HIV-1NL4-3)) (UniProt P12497); test: FRET-HIV-1 assay, co-transfected Cos-7 cells
[5] = biological target: YFP-tagged wild-type HIV-1 protease subunit (PRWT^YFP) (HIV-1 (HIV-1NL4-3)) (UniProt P12497); test: FRET, acceptor photobleaching, co-transfected Cos-7 cells, no-drug control of FIG. 2F
[6] = biological target: YFP-tagged wild-type HIV-1 protease subunit (PRWT^YFP) (HIV-1 (HIV-1NL4-3)) (UniProt P12497); test: FRET, acceptor photobleaching, co-transfected Cos-7 cells, no-drug control of FIG. 2D
[7] = biological target: YFP-tagged wild-type HIV-1 protease subunit (PRWT^YFP) (HIV-1 (HIV-1NL4-3)) (UniProt P12497); test: FRET, acceptor photobleaching, co-transfected Cos-7 cells
[8] = biological target: YFP-tagged wild-type HIV-1 protease subunit (PRWT^YFP) (HIV-1 (HIV-1NL4-3)) (UniProt P12497); test: FRET, acceptor photobleaching, co-transfected Cos-7 cells (n=23)

Q: For “HIV-PRD29A^CFP (from UniProt P12497) (enzyme)”, which average CFP A/B ratio [1] is on record?
A: < 1

Q: Which average CFP A/B ratio [2] does the source give for “HIV-PRD29N^CFP (from UniProt P12497) (enzyme)” here?
A: < 1

Q: How did the average CFP A/B ratio [3] turn out when “HIV-PRR87K^CFP (from UniProt P12497) (enzyme)” was run?
A: < 1

Q: For “HIV-PRT26A^CFP (from UniProt P12497) (enzyme)”, which average CFP A/B ratio [4] is on record?
A: < 1

Q: Which results are given for “CFP-tagged wild-type HIV-1 protease subunit (PRWT^CFP) (from UniProt P12497) (enzyme)”?
A: FRET ratio [5]: 1.29; ratio of ECFP fluorescence after photobleaching to before photobleaching [6]: 1.27; CFP^A/B ratio [7]: 1.38; YFP^A/B ratio [7]: 0.17; ratio of CFP fluorescence after photobleaching to CFP fluorescence prior to photobleaching [7]: 1.19; CFP^A/B ratio [8]: 1.24; YFP^A/B ratio [8]: 0.47
